According to patent publication US20140140926A1:
No end group written: not given here.

What was measured:
[1] = target: soluble hSIRP-alpha (human) (UniProt P78324); experiment: flow cytometry, biotinylated peptide on streptavidin polystyrene beads binding soluble hSIRP-alpha, saturation binding fit
[2] = target: soluble hSIRP-alpha (human) (UniProt P78324); experiment: inhibition of soluble hSIRP-alpha binding to polypeptide beads by soluble peptide

Binder | Kd [1] | Ki [2]
GNYTCEVTELTREGETIIELK (also: biotin via aminohexanoic acid (C6) or PEG linker, site not given here) [FG-peptide (21-aa, …)] | 110 to 160 nM | 
EVTELTREGE (synthesized without attachment of biotin) [FG-hairpin (10-aa, …)] |  | 100 to 200 nM
